Measurements: US20160263155A1, “T CELL RECEPTORS DIRECTED AGAINST THE PREFERENTIALLY EXPRESSED ANTIGEN OF MELANOMA AND USES THEREOF” (LEIDEN UNIVERSITY MEDICAL CENTER, priority 2015, published 2016)
Numbering of substitutions follows the chain as printed. Names may count otherwise.

B1: N405Q (protein)
chain: GFGDVGALESLRGNADLAYILSMEPCGHCLIINNVNFCRESGLRTRTGSNIDCEKLRRRFSSLHFMVEVKGDLTAKKMVLALLELAQQDHGALDCCVVVILSHGCQASHLQFPGAVYGTDGCPVSVEKIVNIFNGTSCPSLGGKPKLFFIQACGGEQKDHGFEVASTSPEDESPGSNPEPDATPFQEGLRTFDQLDAISSLPTPSDIFVSYSTFPGFVSWRDPKSGSWYVETLDDIFEQWAHSEDLQSLLLRVANAVSVKGIYKQMPGCFQFLRKKLFFKTS
B2: D330A-S144D (protein)
chain: B1 chain with S10D, D196A, Q271N
B3: D330S (protein)
chain: B1 chain with D196S, Q271N
B4: S196A (protein)
chain: B1 chain with S62A, Q271N
B5: N405Q-S196D (protein)
chain: B1 chain with S62D
B6: D330N (protein)
chain: B1 chain with D196N, Q271N
B7: D330A (protein)
chain: B1 chain with D196A, Q271N
B8: D330V (protein)
chain: B1 chain with D196V, Q271N
B9: N405Q-S144A (protein)
chain: B1 chain with S10A
B10: N405Q-S144D (protein)
chain: B1 chain with S10D
B11: S183A (protein)
chain: B1 chain with S49A, Q271N
B12: D330A-S183A (protein)
chain: B1 chain with S49A, D196A, Q271N
B13: T317A (protein)
chain: B1 chain with T183A, Q271N
B14: S195A (protein)
chain: B1 chain with S61A, Q271N
B15: F406A (protein)
chain: B1 chain with Q271N, F272A
B16: F404Y (protein)
chain: B1 chain with F270Y, Q271N
B17: F406W (protein)
chain: B1 chain with Q271N, F272W
B18: L329E (protein)
chain: B1 chain with L195E, Q271N
B19: F406Y (protein)
chain: B1 chain with Q271N, F272Y
B20: D330A-S144A (protein)
chain: B1 chain with S10A, D196A, Q271N
B21: D330A-S196A (protein)
chain: B1 chain with S62A, D196A, Q271N
B22: D330A-N405Q (protein)
chain: B1 chain with D196A
B23: D330G (protein)
chain: B1 chain with D196G, Q271N
B24: ^402GCFNF^406ISAQT: Caspase-9 homodimerization domain mutant (SEQ ID NOS 95 and 96) (Casp-10) (protein, UniProt P55211 1-416, looked up, variant G402I C403S F404A N405Q F406T)
chain: MDEADRRLLRRCRLRLVEELQVDQLWDALLSRELFRPHMIEDIQRAGSGSRRDQARQLIIDLETRGSQALPLFISCLEDTGQDMLASFLRTNRQAAKLSKPTLENLTPVVLRPEIRKPEVLRPETPRPVDIGSGGFGDVGALESLRGNADLAYILSMEPCGHCLIINNVNFCRESGLRTRTGSNIDCEKLRRRFSSLHFMVEVKGDLTAKKMVLALLELAQQDHGALDCCVVVILSHGCQASHLQFPGAVYGTDGCPVSVEKIVNIFNGTSCPSLGGKPKLFFIQACGGEQKDHGFEVASTSPEDESPGSNPEPDATPFQEGLRTFDQLDAISSLPTPSDIFVSYSTFPGFVSWRDPKSGSWYVETLDDIFEQWAHSEDLQSLLLRVANAVSVKGIYKQMPISAQTLRKKLFFKTS
B25: N405Qco: Caspase-9 mutant (protein, UniProt P55211 1-416, looked up, variant N405Q)
chain: B24 chain with I402G, S403C, A404F, T406F
modifications: codon-optimized
notes: Caspase-9 mutant
B26: N405Q-T3175 (protein, UniProt P55211 1-416, looked up, variant N405Q T317S)
chain: B24 chain with T317S, I402G, S403C, A404F, T406F
B27: N405Q-S144Aco (protein, UniProt P55211 1-416, looked up, variant N405Q S144A)
chain: B24 chain with S144A, I402G, S403C, A404F, T406F
modifications: codon optimized
B28: N405Q-T317Sco (protein, UniProt P55211 1-416, looked up, variant N405Q T317S)
chain: B24 chain with T317S, I402G, S403C, A404F, T406F

tested on: chimeric Caspase-9 polypeptide; assay: Caspase mutant classes and basal activity (Table 3); assay type: cell-based, human; conditions: class heading of Table 3
Sequence (as listed by the source, change not shown): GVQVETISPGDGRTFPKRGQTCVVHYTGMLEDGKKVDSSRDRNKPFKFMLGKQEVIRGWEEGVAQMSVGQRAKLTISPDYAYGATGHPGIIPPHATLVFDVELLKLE

Molecule | Basal Activity
B1 | Decreased
B2 | Decreased
B3 | Decreased
B4 | Decreased
B5 | Decreased
B6 | Decreased
B7 | Decreased
B8 | Decreased
B9 | Decreased
B10 | Decreased
B11 | Decreased
B12 | Decreased
B13 | Decreased
B14 | Decreased
B15 | Decreased
B16 | Decreased
B17 | Decreased
B18 | Decreased
B19 | Decreased
B20 | Decreased
B21 | Decreased
B22 | Decreased
B23 | Decreased
B24 | Decreased
B25 | Decreased
B26 | Decreased

same assay, conditions: class heading of Table 3; ligand IC50

Molecule | IC50
B1 | higher IC50
B2 | higher IC50
B3 | higher IC50
B4 | higher IC50
B5 | higher IC50
B6 | higher IC50
B7 | higher IC50
B8 | higher IC50
B9 | higher IC50
B10 | higher IC50
B11 | higher IC50
B12 | higher IC50
B13 | higher IC50
B14 | higher IC50
B15 | higher IC50
B16 | higher IC50
B17 | higher IC50
B18 | higher IC50
B19 | higher IC50
B20 | higher IC50
B21 | higher IC50
B22 | higher IC50
B23 | higher IC50
B24 | higher IC50
B25 | higher IC50
B26 | higher IC50

same assay, conditions: class heading of Table 3; marked *, predicted

Molecule | Basal Activity
B27 | Decreased
B28 | Decreased
